Test results published in patent publication US7041871.

Target: native human CD4 on cells (SupT1 T cell line; human PBL/PBMC) (human) (UniProt P01730)
Test: ratio of BIAcore Ka on rCD4 to flow cytometry Ka on nCD4

A Ration of Ka (rCD4/nCD4) of 6.1 was found for chimeric Leu3a (antibody) in this work.
